# T1: pM-Gal4DBD-AR (amino acids 624-919), P10275
# T1 chain: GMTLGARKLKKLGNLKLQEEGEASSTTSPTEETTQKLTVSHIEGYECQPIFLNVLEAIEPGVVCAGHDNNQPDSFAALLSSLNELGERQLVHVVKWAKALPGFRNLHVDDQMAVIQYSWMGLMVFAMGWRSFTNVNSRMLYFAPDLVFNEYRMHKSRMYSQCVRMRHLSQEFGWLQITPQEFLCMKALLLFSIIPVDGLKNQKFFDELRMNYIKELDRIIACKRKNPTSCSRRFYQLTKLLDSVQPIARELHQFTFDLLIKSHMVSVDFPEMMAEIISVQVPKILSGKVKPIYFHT
# B1: pVP16-AR111Q (amino acids 12-660), P10275 F23A (protein)
# chain: PRPPSKTYRGAAQNLFQSVREVIQNPGPRHPEAASAAPPGASLLLLQQQQQQQQQQQQQQQQQQQQQQQETSPRQQQQQQGEDGSPQAHRRGPTGYLVLDEEQQPSQPQSALECHPERGCVPEPGAAVAASKGLPQQLPAPPDEDDSAAPSTLSLLGPTFPGLSSCSADLKDILSEASTMQLLQQQQQEAVSEGSSSGRAREASGAPTSSKDNYLGGTSTISDNAKELCKAVSVSMGLGVEALEHLSPGEQLRGDCMYAPLLGVPPAVRPTPCAPLAECKGSLLDDSAGKSTEDTAEYSPFKGGYTKGLEGESLGCSGSAAAGSSGTLELPSTLSLYKSGALDEAAAYQSRDYYNFPLALAGPPPPPPPPHPHARIKLENPLDYGSAWAAAAAQCRYGDLASLHGAGAAGPGSGSPSAAASSSWHTLFTAEEGQLYGPCGGGGGGGGGGGGGGGGGGGGGGGEAGAVAPYGYTRPPQGLAGQESDFTAPDVWYPGGMVSRVPYPSPTCVKSEMGPWMDSYSGPYGDMRLETARDHVLPIDYYFPPQKTCLICGDEASGCHYGALTCGSCKVFFKRAAEGKQKYLCASRNDCTIDKFRRKNCPSCRLRKCYEAGMTLGARKLKKLGNLKLQEEGEASSTTSPTEETTQKL
# Biological target: T1, pM-Gal4DBD-AR (amino acids 624-919), …
# Test: mammalian two-hybrid
# Settings: chain shown with the change, HEK293T cells, read off a plot
binder,measurement,setting,value
B1,response (Relative Luciferase Units),"DHT treated, parent: est. 2.4",0.35
same,other: Average Fold Change (DHT/EtOH treated),"DHT versus EtOH, parent: est. 2.2",0.9
